Results on 4 substances are retold here after patent publication US20260183373A1.

What is called EC50 (read off the curve) is the concentration that produces a half-maximal response.

The target of assay [1] is Aβ(1-40) (UniProt P05067).
The target of assay [2] is Aβ(1-40) (UniProt P05067). This is another data set of the same source.
The target of assay [3] is Aβ(1-42) (UniProt P05067).
Assay [4] concerns the target Aβ(1-40) (UniProt P05067). As to the kind of experiment: cell-based or functional assay.
Assay [5] addresses Aβ(1-42) (UniProt P05067). Briefly: cell-based or functional assay.
In assay [6] the target is Aβ(1-42) (UniProt P05067). The source holds these as a separate data set.

neprolysin (NEP), sequence (P08473 52-750 limits assumed): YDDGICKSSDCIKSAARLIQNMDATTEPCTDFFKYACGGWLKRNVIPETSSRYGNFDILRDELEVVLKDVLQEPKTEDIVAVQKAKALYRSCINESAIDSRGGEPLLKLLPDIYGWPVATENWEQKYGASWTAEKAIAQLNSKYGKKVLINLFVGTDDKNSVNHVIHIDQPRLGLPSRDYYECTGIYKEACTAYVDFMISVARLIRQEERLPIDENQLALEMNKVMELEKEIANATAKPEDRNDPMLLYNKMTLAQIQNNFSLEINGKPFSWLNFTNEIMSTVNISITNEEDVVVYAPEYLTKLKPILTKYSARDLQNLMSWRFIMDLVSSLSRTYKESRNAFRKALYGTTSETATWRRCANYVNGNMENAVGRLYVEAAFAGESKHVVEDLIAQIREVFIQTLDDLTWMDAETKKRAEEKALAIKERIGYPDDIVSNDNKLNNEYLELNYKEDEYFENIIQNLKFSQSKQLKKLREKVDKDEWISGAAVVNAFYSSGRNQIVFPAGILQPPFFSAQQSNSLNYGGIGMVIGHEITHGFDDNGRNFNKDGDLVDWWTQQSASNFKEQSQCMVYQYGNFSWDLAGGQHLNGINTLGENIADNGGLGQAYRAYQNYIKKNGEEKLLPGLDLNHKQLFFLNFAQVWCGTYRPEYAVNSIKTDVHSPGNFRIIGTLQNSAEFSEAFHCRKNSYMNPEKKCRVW
MMP2 (enzyme), sequence (P08253 110-660): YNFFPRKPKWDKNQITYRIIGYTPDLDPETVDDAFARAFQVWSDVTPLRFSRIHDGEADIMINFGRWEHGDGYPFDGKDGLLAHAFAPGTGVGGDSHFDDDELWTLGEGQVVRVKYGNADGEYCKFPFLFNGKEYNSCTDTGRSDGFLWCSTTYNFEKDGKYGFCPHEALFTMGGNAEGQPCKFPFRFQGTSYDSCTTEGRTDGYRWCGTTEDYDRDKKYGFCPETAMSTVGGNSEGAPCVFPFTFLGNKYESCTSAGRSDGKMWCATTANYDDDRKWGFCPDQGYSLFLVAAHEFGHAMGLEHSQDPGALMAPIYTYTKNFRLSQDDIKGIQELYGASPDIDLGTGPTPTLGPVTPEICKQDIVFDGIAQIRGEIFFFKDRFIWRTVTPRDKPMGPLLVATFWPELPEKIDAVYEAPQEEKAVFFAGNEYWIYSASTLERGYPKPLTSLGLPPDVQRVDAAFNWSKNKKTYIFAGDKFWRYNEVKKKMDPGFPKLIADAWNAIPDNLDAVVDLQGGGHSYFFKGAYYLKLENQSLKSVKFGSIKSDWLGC

MMP2 (enzyme) returned an EC50 (read off the curve) in the assay with Aβ(1-40) [1] of 0.09 µM.
The substance “neprolysin (NEP) (from UniProt P08473 52-750) (enzyme)” displayed an EC50 of Aβ(1-40) cleavage (intact Aβ by ELISA) with Aβ(1-40) [2] of 0.019 µM. In the assay with Aβ(1-42) [3], the EC50 of Aβ(1-42) cleavage (intact Aβ by ELISA) is 0.044 µM. For the same substance, the EC50 of Aβ cleavage (ELISA-based assay of intact Aβ) in the assay with Aβ(1-40) [4] and with Aβ(1-42) [5] was 0.012 µM throughout.
For “insulin-degrading enzyme (IDE) (from UniProt P14735 42-1019)”, the EC50 of Aβ cleavage (ELISA-based assay of intact Aβ) with Aβ(1-40) [4] and in the assay with Aβ(1-42) [5] was 0.0001 µM in each case.
As to NEP2 (enzyme), the EC50 (read off the curve) amounted to 0.05 µM with Aβ(1-40) [1] and 0.06 µM with Aβ(1-42) [6].
